Legend:
human complement C2 [1] = biological target: T1, human complement C2 (human, UniProt P06681 21-752); assay: SPR, mAb captured, huC2 analyte, neutral pH; pH 7
T1 construct: Recombinant full-length human C2 with C-terminal 8x His tag, purified from Expi293F supernatant; also called human C2; huC2
T1 sequence: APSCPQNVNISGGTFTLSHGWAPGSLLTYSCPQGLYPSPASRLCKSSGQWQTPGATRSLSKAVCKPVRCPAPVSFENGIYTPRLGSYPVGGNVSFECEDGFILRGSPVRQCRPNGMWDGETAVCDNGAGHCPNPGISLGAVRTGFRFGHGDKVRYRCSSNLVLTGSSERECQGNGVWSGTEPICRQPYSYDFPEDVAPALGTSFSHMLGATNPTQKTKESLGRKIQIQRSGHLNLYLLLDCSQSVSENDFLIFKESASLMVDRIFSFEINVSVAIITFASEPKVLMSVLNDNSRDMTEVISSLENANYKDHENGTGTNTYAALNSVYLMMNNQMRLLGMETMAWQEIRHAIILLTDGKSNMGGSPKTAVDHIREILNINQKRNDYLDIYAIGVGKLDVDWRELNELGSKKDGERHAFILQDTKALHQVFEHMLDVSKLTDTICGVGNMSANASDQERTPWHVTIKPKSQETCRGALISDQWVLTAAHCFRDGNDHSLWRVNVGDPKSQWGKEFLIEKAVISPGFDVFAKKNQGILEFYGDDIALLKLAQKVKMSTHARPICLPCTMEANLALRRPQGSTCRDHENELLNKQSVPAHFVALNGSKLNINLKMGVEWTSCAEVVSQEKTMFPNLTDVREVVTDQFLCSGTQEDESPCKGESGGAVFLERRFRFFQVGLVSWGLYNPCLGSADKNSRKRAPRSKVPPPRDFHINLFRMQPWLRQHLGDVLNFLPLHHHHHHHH

human complement C2 [2] = biological target: T1, human complement C2; assay: SPR, mAb captured, huC2 analyte, pH 6
human FcRn/β2m = biological target: T2, human FcRn/β2m (human, UniProt P55899 24-297; P61769 21-119); assay: SPR, antibody immobilised, FcRn/β2m analyte, pH 6.0; pH 6.0
T2 construct: Soluble FcRn/β2m injected as analyte over immobilised antibody; also called neonatal Fc receptor
Method: Anti-C2 mAbs (1 μg/mL at pH 5) were immobilized on a carboxylmethyldextran (CM5) sensorchip surface using standard EDC/NHS chemistry. Human and Cyno FcRn/β2m (40 μM) were prepared in running buffer (10 mM HEPES, 150 mM NaCl, 10 mM MES adjusted to either pH 6 or pH 7.3) and injected on the immobilized anti-C2 surface at concentrations ranging from 0.078 to 40 μM, prepared in two-fold dilutions in running buffer. Association and dissociation phases were monitored for 180 and 600 seconds, respectively. […] Double referenced sensorgrams were fitted to either a 1:1 kinetic model (pH 6), including a term for mass transport limitation or to a 1:1 steady state model (pH 7.3) where responses at the end of the association phase were plotted against respective concentrations.
Binding to both human and cynomolgus monkey FcRn was tested using the SPR methods described above.

human complement C2 [3] = biological target: T1, human complement C2; assay: cell-based or functional assay
cynomolgus monkey C2 [4] = biological target: T3, cynomolgus monkey C2 (cynomolgus monkey, UniProt G8F3W0 21-752); assay: cell-based or functional assay
T3 sequence: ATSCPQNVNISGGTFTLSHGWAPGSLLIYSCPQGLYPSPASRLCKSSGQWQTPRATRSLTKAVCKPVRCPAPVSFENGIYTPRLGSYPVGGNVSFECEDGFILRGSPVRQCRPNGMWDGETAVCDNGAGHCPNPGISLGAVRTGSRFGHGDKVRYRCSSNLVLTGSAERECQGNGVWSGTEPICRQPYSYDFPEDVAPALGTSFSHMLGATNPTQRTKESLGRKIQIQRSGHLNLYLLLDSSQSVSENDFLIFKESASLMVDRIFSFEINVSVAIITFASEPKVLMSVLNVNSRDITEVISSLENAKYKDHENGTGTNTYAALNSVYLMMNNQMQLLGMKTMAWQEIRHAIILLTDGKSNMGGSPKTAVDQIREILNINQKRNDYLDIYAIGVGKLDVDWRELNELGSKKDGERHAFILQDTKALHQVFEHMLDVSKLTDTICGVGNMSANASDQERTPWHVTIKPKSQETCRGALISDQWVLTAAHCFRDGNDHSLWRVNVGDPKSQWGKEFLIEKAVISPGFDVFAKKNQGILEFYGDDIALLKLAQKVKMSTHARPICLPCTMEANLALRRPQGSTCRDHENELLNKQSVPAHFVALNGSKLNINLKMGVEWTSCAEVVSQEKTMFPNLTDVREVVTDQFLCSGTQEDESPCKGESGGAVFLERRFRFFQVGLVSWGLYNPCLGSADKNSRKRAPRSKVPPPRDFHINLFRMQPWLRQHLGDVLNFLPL

mouse C2 = biological target: T4, mouse C2 (mouse, UniProt P21180 19-760, limits assumed); assay: SPR, mAb captured, mouse C2 analyte, pH 7.3
T4 sequence (looked up): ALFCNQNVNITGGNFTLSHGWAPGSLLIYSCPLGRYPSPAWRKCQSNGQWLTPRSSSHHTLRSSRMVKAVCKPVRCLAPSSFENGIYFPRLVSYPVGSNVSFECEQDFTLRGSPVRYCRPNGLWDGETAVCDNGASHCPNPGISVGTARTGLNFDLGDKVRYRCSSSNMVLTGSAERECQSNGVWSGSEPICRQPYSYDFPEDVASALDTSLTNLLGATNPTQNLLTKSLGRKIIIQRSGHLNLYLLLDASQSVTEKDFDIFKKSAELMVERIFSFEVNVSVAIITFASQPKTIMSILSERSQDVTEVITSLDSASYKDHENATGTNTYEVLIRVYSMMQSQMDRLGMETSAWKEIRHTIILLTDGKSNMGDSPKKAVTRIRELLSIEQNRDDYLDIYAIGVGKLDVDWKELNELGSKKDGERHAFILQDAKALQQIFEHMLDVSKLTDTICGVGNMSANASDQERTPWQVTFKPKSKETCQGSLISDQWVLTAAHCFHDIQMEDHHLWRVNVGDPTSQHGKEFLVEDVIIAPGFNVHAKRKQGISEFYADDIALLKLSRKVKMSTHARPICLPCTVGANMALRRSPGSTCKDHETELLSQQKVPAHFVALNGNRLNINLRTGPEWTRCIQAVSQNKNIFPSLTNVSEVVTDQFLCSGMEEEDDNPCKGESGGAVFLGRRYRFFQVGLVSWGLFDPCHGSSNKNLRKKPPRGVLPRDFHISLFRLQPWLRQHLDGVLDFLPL
Method: (§1) Surface plasmon resonance (SPR, Biacore) was used for all binding affinity analyses. In brief, goat anti-human IgG was directly immobilised onto the carboxymethyl dextran surface of CM5 sensorchips to approximately 12,000 RU using standard NHS/EDC chemistry at pH 5. The immobilised antibody surface was pre-conditioned with ten injections of polyclonal human IgG (Privigen 60 s) prepared at 1 μg/mL. Ligands (anti-C2 mAbs) were captured at the beginning of each cycle as described below. An adjacent spot or flow cell in which only Polyclonal IgG was capture was used as a reference surface. The goat anti-human IgG Fc antibody surface was regenerate in 100 mM H3PO4, injected for 45 seconds at the end of each cycle. Experiments were performed at 37° C. and the flow rate of each experiment was kept constant at 30 μL/min.
(§2) In addition to human C2, the pH dependent anti-C2 antibodies were also tested for their ability to bind to C2 from other mammalian species using the SPR methods described above in order to identify suitable surrogate species for in vivo testing. The antibodies were tested for binding at neutral pH against C2 from cynomolgus monkeys, mice, dogs, rabbits, rats, pigs, and sheep.

human complement C2 [5] = biological target: T1, human complement C2; assay: cell-based or functional assay; remark: listed apart in the source
human complement C2 [6] = biological target: T1, human complement C2; assay: SPR, mAb captured, C2 analyte, HBS-EP, pH 6.0
Method: as §1
(§3) The pH dependent anti-C2 antibodies and their germlined versions were tested for their affinity to C2 at pH 7.3 (neutral pH) and pH 6.0 (early endosome pH) using the SPR methods described above in HBS-EP buffer.

cynomolgus monkey C2 [7] = biological target: T3, cynomolgus monkey C2; assay: cell-based or functional assay; remark: listed apart in the source
cynomolgus monkey C2 [8] = biological target: T3, cynomolgus monkey C2; assay: SPR, mAb captured, cyno C2 analyte, pH 6.0
Method: as §1, §2

cynomolgus monkey C2 [9] = biological target: T3, cynomolgus monkey C2; assay: SPR, mAb captured, cyno C2 analyte, pH 7.3
Method: as §1, §2

human complement C2 [10] = biological target: T1, human complement C2; assay: SPR, mAb captured, C2 analyte, HBS-EP, pH 7.3
Method: as §1, §3

T2 sequence (P55899 24-297 limits assumed, chain 1 of 2): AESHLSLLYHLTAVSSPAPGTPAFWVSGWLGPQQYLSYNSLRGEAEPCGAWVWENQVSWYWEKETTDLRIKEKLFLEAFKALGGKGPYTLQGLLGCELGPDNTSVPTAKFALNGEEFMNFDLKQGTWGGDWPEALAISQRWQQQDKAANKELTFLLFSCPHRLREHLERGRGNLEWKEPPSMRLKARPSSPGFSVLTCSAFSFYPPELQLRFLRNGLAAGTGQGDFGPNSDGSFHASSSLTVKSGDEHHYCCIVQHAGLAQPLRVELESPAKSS
T2 sequence (P61769 21-119 limits assumed, chain 2 of 2): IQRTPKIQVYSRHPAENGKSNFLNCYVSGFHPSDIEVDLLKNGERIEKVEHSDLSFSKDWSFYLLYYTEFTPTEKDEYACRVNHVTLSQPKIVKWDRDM

B1: RF16-226 YEY (antibody, human IgG4 S228P, lambda)
heavy: EVQLVQSGAEVKKPGESLKISCKGSGYSFTSYWIGWVRQMPGKGLEWMGIIYPGDSDTRYSPSFQGQVTISADKSISTAYLQWSSLKASDTAMYYCARRFSYSSGWDMWGQGTLVTVSSASTKGPSVFPLAPCSRSTSESTAALGCLVKDYFPEPVTVSWNSGALTSGVHTFPAVLQSSGLYSLSSVVTVPSSSLGTKTYTCNVDHKPSNTKVDKRVESKYGPPCPPCPAPEFLGGPSVFLFPPKPKDTLYISRTPEVTCVVVDVSQEDPEVQFNWYVDGVEVHEAKTKPREEQFNSTYRVVSVLTVLHQDWLNGKEYKCKVSNKGLPSSIEKTISKAKGQPREPQVYTLPPSQEEMTKNQVSLTCLVKGFYPSDIAVEWESNGQPENNYKTTPPVLDSDGSFFLYSRLTVDKSRWQEGNVFSCSVMHEALHYHYTQKSLSLSLGK
light: SYELTQPPSVSVSPGQTARITCSGDALTSKYVAWYQQKSGLAPLLVIYEDTRRPSGIPAKFSGSSSGSVATLTISGAHGDDEADYYCYSTDASGHQRVFGGGTKLTVLSQPKAAPSVTLFPPSSEELQANKATLVCLISDFYPGAVTVAWKADGSPVKAGVETTKPSKQSNNKYAASSYLSLTPEQWKSHRSYSCQVTHEGSTVEKTVAPTECS
Kd (human complement C2 [1]): ~9 nM | Kd (human complement C2 [2]): ~80 nM

B2: RF16-226 YTE (antibody, human IgG4 S228P, lambda)
heavy: EVQLVQSGAEVKKPGESLKISCKGSGYSFTSYWIGWVRQMPGKGLEWMGIIYPGDSDTRYSPSFQGQVTISADKSISTAYLQWSSLKASDTAMYYCARRFSYSSGWDMWGQGTLVTVSSASTKGPSVFPLAPCSRSTSESTAALGCLVKDYFPEPVTVSWNSGALTSGVHTFPAVLQSSGLYSLSSVVTVPSSSLGTKTYTCNVDHKPSNTKVDKRVESKYGPPCPPCPAPEFLGGPSVFLFPPKPKDTLYITREPEVTCVVVDVSQEDPEVQFNWYVDGVEVHNAKTKPREEQFNSTYRVVSVLTVLHQDWLNGKEYKCKVSNKGLPSSIEKTISKAKGQPREPQVYTLPPSQEEMTKNQVSLTCLVKGFYPSDIAVEWESNGQPENNYKTTPPVLDSDGSFFLYSRLTVDKSRWQEGNVFSCSVMHEALHNHYTQKSLSLSLGK
light: SYELTQPPSVSVSPGQTARITCSGDALTSKYVAWYQQKSGLAPLLVIYEDTRRPSGIPAKFSGSSSGSVATLTISGAHGDDEADYYCYSTDASGHQRVFGGGTKLTVLSQPKAAPSVTLFPPSSEELQANKATLVCLISDFYPGAVTVAWKADGSPVKAGVETTKPSKQSNNKYAASSYLSLTPEQWKSHRSYSCQVTHEGSTVEKTVAPTECS
Kd (human complement C2 [1]): ~9 nM | Kd (human complement C2 [2]): ~80 nM

B3: RF16-226 YPY (antibody, human IgG4 S228P, lambda)
heavy: EVQLVQSGAEVKKPGESLKISCKGSGYSFTSYWIGWVRQMPGKGLEWMGIIYPGDSDTRYSPSFQGQVTISADKSISTAYLQWSSLKASDTAMYYCARRFSYSSGWDMWGQGTLVTVSSASTKGPSVFPLAPCSRSTSESTAALGCLVKDYFPEPVTVSWNSGALTSGVHTFPAVLQSSGLYSLSSVVTVPSSSLGTKTYTCNVDHKPSNTKVDKRVESKYGPPCPPCPAPEFLGGPSVFLFPPKPKDTLYISRTPEVTCVVVDVSQEDPEVQFNWYVDGVEVHNAKTKPREEQFNSTYRVVSVLTPLHQDWLNGKEYKCKVSNKGLPSSIEKTISKAKGQPREPQVYTLPPSQEEMTKNQVSLTCLVKGFYPSDIAVEWESNGQPENNYKTTPPVLDSDGSFFLYSRLTVDKSRWQEGNVFSCSVMHEALHYHYTQKSLSLSLGK
light: SYELTQPPSVSVSPGQTARITCSGDALTSKYVAWYQQKSGLAPLLVIYEDTRRPSGIPAKFSGSSSGSVATLTISGAHGDDEADYYCYSTDASGHQRVFGGGTKLTVLSQPKAAPSVTLFPPSSEELQANKATLVCLISDFYPGAVTVAWKADGSPVKAGVETTKPSKQSNNKYAASSYLSLTPEQWKSHRSYSCQVTHEGSTVEKTVAPTECS
Kd (human complement C2 [1]): ~9 nM | Kd (human complement C2 [2]): ~80 nM

B4: RF16-226 M252Y, S254T, T256E (antibody, human IgG4 S228P, lambda)
heavy: EVQLVQSGAEVKKPGESLKISCKGSGYSFTSYWIGWVRQMPGKGLEWMGIIYPGDSDTRYSPSFQGQVTISADKSISTAYLQWSSLKASDTAMYYCARRFSYSSGWDMWGQGTLVTVSSASTKGPSVFPLAPCSRSTSESTAALGCLVKDYFPEPVTVSWNSGALTSGVHTFPAVLQSSGLYSLSSVVTVPSSSLGTKTYTCNVDHKPSNTKVDKRVESKYGPPCPPCPAPEFLGGPSVFLFPPKPKDTLYITREPEVTCVVVDVSQEDPEVQFNWYVDGVEVHNAKTKPREEQFNSTYRVVSVLTVLHQDWLNGKEYKCKVSNKGLPSSIEKTISKAKGQPREPQVYTLPPSQEEMTKNQVSLTCLVKGFYPSDIAVEWESNGQPENNYKTTPPVLDSDGSFFLYSRLTVDKSRWQEGNVFSCSVMHEALHNHYTQKSLSLSLGK
light: SYELTQPPSVSVSPGQTARITCSGDALTSKYVAWYQQKSGLAPLLVIYEDTRRPSGIPAKFSGSSSGSVATLTISGAHGDDEADYYCYSTDASGHQRVFGGGTKLTVLSQPKAAPSVTLFPPSSEELQANKATLVCLISDFYPGAVTVAWKADGSPVKAGVETTKPSKQSNNKYAASSYLSLTPEQWKSHRSYSCQVTHEGSTVEKTVAPTECS
Kd (human FcRn/β2m): 680 nM

B5: RF16-191 (antibody, V domains shown)
VH: EVQLLESGGGLVQPGGSLRLSCAASGFTFSKYWMGWVRQATGKGLEWVSSIYSSGGWTYYADSVKGRFTISRDNSKNTLYLQMNSLRAEDTAVYYCARRPRSFSGSYYRAFDIWGQGTMVTVSS
VL: DIQMTQSPSSLSASVGDRVTITCRASQSITDYLNWYQQRPGKAPKLLIYAASSLQSGVPSRFSGSGSGTDFTLTISGLQPEDFATYYCQQSYSSSITFGQGTRLDLKR
notes: Human antibody from a phage display library
IC50, inhibition of human classical pathway (hemolysis assay) (human complement C2 [3]): 29.4 nM | IC50, inhibition of cyno classical pathway (hemolysis assay) (cynomolgus monkey C2 [4]): 188 nM | Kd (mouse C2): 303 nM | IC50, inhibition of human classical complement pathway (Wieslab assay) (human complement C2 [5]): 1.09 nM | IC50, inhibition of human lectin complement pathway (Wieslab assay) (human complement C2 [5]): 0.857 nM | Kd (human complement C2 [6]): 13 nM | IC50, inhibition of cynomolgus classical complement pathway (Wieslab assay) (cynomolgus monkey C2 [7]): 11 nM | IC50, inhibition of cynomolgus lectin complement pathway (Wieslab assay) (cynomolgus monkey C2 [7]): 49.2 nM | Kd (cynomolgus monkey C2 [8]): 71.3 nM | Kd (cynomolgus monkey C2 [9]): 27.4 nM | Kd (human complement C2 [10]): 10.9 nM

Reference: patent US20220332804A1 (CSL INNOVATION, published 2022)
